Laboratory results taken from the RNAGym collection of RNA variant scans (doi:10.1093/molbev/msab373).

B1: Azoarcus group I ribozyme (parent)
chain: GUGCCUUGCGCCGGGAAACCACGCAAGGGAUGGUGUCAAAUUCGGCGAAACCUAAGCGCCCGCCCGGGCGUAUGGCAACGCCGAGCCAAGCUUCGGCGCCUGCGCCGAUGAAGGUGUAGAGACUAGACGGCACCCACCUAAGGCAAACGCUAUGGUGAAGGCAUAGUCCAGGGAGUGGCGAAAGUCACACAAACCGG

Variants of: B1
Experiment: reverse-splicing fitness (ratio to wild type); higher = more active; in vitro selection; Mg2+ level not given
Outline: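 An in vitro group I ribozyme library with randomized positions was T7-transcribed and gel-purified. In triplicate, 10 pmol RNA in EPPS pH 7.5 was reacted with 50 pmoles of a 30-nt RNA substrate for 1 h at 37 °C across several added MgCl2 levels (1–48 mM), then stopped with EDTA. Products were reverse transcribed from a substrate-complementary primer, PCR-amplified and sequenced (HiSeq 4000). Fitness is a variant's read proportion after selection over that before, normalised to wild type.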

Variant	reverse-splicing fitness
A111G A120U A145G C150G C169G U176A	0.00719
A111G A120U A145G C150G C169G U176G	0.00311
A111G A145G C150G C169U U176G	0.00609
A111G A145G C150G C169U U176A	0.011
A111G A145G C150G C169U U176C	0.0172
A111G A120U A145G C150A	0.148
A111G A120U A145G C150U	0.611
A111G A120U A145G C150G	0.0771
A111G A120U A145G C150A C169U	0.0188
A111G A120U A145G C150A C169A	0.00596
A111G A120U A145G C150A C169G	0.0141
A111G A145G C150A U176G	0.109
A111G A145G C150A U176C	0.32
A111G A145G C150A U176A	0.297
A111G A145C C150U C169U U176A	0.0217
A111G A145C C150U C169U U176C	0.0247
A111G A145C C150U C169U U176G	0.0062
A111G A120U C150U C169A U176C	0.00257
A111G A120U C150U C169A U176G	0.00227
A111G A120U C150U C169A U176A	0.00336
A111G A145G C150U U176C	0.713
A111G A145G C150U U176A	0.72
A111G A145G C150U U176G	0.25
A111G A120U A145G C150U C169A	0.00841

Variant	reverse-splicing fitness
A111G A120U A145G C150U C169U	0.111
A111G A120U A145G C150U C169G	0.0623
A111G A120U A145U U176G	0.15
A111G A120U A145U U176A	0.364
A111G A120U A145U U176C	0.431
A111G A145C C169U U176A	0.0432
A111G A145C C169U U176C	0.0591
A111G A145C C169U U176G	0.00859
A111G A145C C150G U176C	0.212
A111G A145C C150G U176G	0.0319
A111G A145C C150G U176A	0.17
A111G A145G C169A U176G	0.00526
A111G A145G C169A U176A	0.0226
A111G A145G C169A U176C	0.036
A111G A120U A145U C150U	0.584
A111G A120U A145U C150A	0.0903
A111G A120U A145U C150G	0.105
A111G A145C C150U C169G U176G	0.00586
A111G A145C C150U C169G U176A	0.0242
A111G A145C C150U C169G U176C	0.0204
A111G A120U A145U C150G C169U U176A	0.00269
A111G A120U A145U C150G C169U U176C	0.00372
A111G A120U A145U C150G C169U U176G	0.00216
A111G A120U A145G C169G U176A	0.00934

Variant	reverse-splicing fitness
A111G A120U A145G C169G U176C	0.0201
A111G A120U A145G C169G U176G	0.00189
A111G A145C C150A U176A	0.129
A111G A145C C150A U176C	0.128
A111G A145C C150A U176G	0.0755
A111G A120U C150U C169G U176A	0.0102
A111G A120U C150U C169G U176G	0.00215
A111G A120U C150U C169G U176C	0.0106
A111G A120U A145C C150U C169G	0.0196
A111G A120U A145C C150U C169U	0.0277
A111G A120U A145U C169U	0.122
A111G A120U A145U C169G	0.0912
A111G A120U A145U C169A	0.00636
A111G A120U A145U C150A C169U U176C	0.00339
A111G A120U A145U C150A C169U U176G	0.00172
A111G A120U A145U C150A C169U U176A	0.00329
A111G A120U C150G C169A	0.00729
A111G A120U C150G C169U	0.0103
A111G A120U C150G C169G	0.0111
A111G A120U A145G C150A U176A	0.0506
A111G A120U A145G C150A U176C	0.0581
A111G A120U A145G C150A U176G	0.0119
A111G A145G C150U C169A U176A	0.0193
A111G A145G C150U C169A U176G	0.00505

Variant	reverse-splicing fitness
A111G A145G C150U C169A U176C	0.0252
A111G A120U A145U C150A U176A	0.0447
A111G A120U A145U C150A U176G	0.018
A111G A120U A145U C150A U176C	0.0372
A111G A145G C150A C169G	0.0238
A111G A145G C150A C169U	0.0371
A111G A145G C150A C169A	0.0138
A111G A145G C150A C169A U176C	0.0214
A111G A145G C150A C169A U176G	0.00563
A111G A145G C150A C169A U176A	0.0183
A111G A145C C169G U176G	0.00491
A111G A145C C169G U176C	0.0431
A111G A145C C169G U176A	0.0344
A111G A120U A145U C150U U176A	0.265
A111G A120U A145U C150U U176C	0.279
A111G A120U A145U C150U U176G	0.0789
A111G A120U C150A C169U U176C	0.00598
A111G A120U C150A C169U U176A	0.0063
A111G A120U C150A C169U U176G	0.00282
A111G A120U A145U C169G U176C	0.0178
A111G A120U A145U C169G U176G	0.00196
A111G A120U A145U C169G U176A	0.00865
A111G A145C C150G	0.45
A111G A145C C150A	0.229

Variant	reverse-splicing fitness
A111G A145C C150U	0.688
A111G A120U A145G C150U C169U U176A	0.0147
A111G A120U A145G C150U C169U U176C	0.0273
A111G A120U A145G C150U C169U U176G	0.00334
A111G A120U C150G C169G U176G	0.00237
A111G A120U C150G C169G U176C	0.00213
A111G A120U C150G C169G U176A	0.00427
A111G A120U C150A U176G	0.0203
A111G A120U C150A U176A	0.0485
A111G A120U C150A U176C	0.0464
A111G A145C C150U C169A U176C	0.00832
A111G A145C C150U C169A U176A	0.0101
A111G A145C C150U C169A U176G	0.0059
A111G A145G C150G C169A	0.0128
A111G A145G C150G C169G	0.0171
A111G A145G C150G C169U	0.0298
A111G A145C C150A C169U U176A	0.0152
A111G A145C C150A C169U U176G	0.00473
A111G A145C C150A C169U U176C	0.0113
A111G A145C C150G C169G	0.018
A111G A145C C150G C169U	0.0255
A111G A145C C150G C169A	0.0117
A111G A120U C150U U176A	0.23
A111G A120U C150U U176G	0.0744

Variant	reverse-splicing fitness
A111G A120U C150U U176C	0.249
A111G A145G C150A C169U U176C	0.0251
A111G A145G C150A C169U U176A	0.0202
A111G A145G C150A C169U U176G	0.00641
A111G A145G C150A C169G U176A	0.0234
A111G A145G C150A C169G U176C	0.0276
A111G A145G C150A C169G U176G	0.00564
A111G A145C	0.876
A111G A145G	0.9
A111G A120U C169U U176C	0.0395
A111G A120U C169U U176G	0.00411
A111G A120U C169U U176A	0.0277
A111G A120U A145C C150U U176A	0.0932
A111G A120U A145C C150U U176C	0.055
A111G A120U A145C C150U U176G	0.0448
A111G A120U C150A C169G U176G	0.00211
A111G A120U C150A C169G U176A	0.00675
A111G A120U C150A C169G U176C	0.00454
A111G A120U C150G C169A U176C	0.00366
A111G A120U C150G C169A U176A	0.00453
A111G A120U C150G C169A U176G	0.00246
A111G A120U C150A C169A U176A	0.00442
A111G A120U C150A C169A U176G	0.00195
A111G A120U C150A C169A U176C	0.00292

Variant	reverse-splicing fitness
A111G A120U A145U C150G C169U	0.012
A111G A120U A145U C150G C169G	0.0082
A111G A120U A145U C150G C169A	0.00344
A111G A120U A145G C150A C169A U176A	0.00539
A111G A120U A145G C150A C169A U176G	0.00273
A111G A120U A145G C150A C169A U176C	0.00368
A111G A145C C150A C169A U176G	0.00629
A111G A145C C150A C169A U176A	0.0101
A111G A145C C150A C169A U176C	0.00515
A111G A120U A145G C169U U176A	0.0227
A111G A120U A145G C169U U176G	0.0035
A111G A120U A145G C169U U176C	0.0414
A111G A120U A145U C150A C169G U176G	0.00159
A111G A120U A145U C150A C169G U176A	0.00286
A111G A120U A145U C150A C169G U176C	0.00285
A111G A120U A145U C150U C169G	0.0547
A111G A120U A145U C150U C169U	0.0793
A111G A120U A145U C150U C169A	0.00473
A111G A120U A145U	0.759
A111G A120U A145G	0.667
A111G A120U C150A C169A	0.00359
A111G A120U C150A C169U	0.0125
A111G A120U C150A C169G	0.0107
